# According to patent US20190300590A1 (PROTAGONIST THERAPEUTICS, published 2019):
# Bridges are numbered along the chain shown (N, C = ends). [ ]: non-standard residue; d: D form. 2Nal = N[C@@H](Cc1ccc2ccccc2c1)C(=O)O; AEF = NCCOc1ccc(C[C@H](N)C(=O)O)cc1; NMeR = CN[C@@H](CCCNC(=N)N)C(=O)O; Cit = NC(=O)NCCC[C@H](N)C(=O)O; αMeL = CC(C)C[C@](C)(N)C(=O)O; NMeK = CN[C@@H](CCCCN)C(=O)O; αMeK = C[C@](N)(CCCCN)C(=O)O; Ac5c = NC1(C(=O)O)CCCC1; Abu = CC[C@H](N)C(=O)O; Dap = NC[C@H](N)C(=O)O; Aib = CC(C)(N)C(=O)O; PEG1 = NCCOCCC(=O)O; AEA = NCCOCC(=O)O; βAla = NCCC(=O)O
# T1: IL-23R on human cells (IL-23R-expressing DB cells; human NK cells) (human, UniProt Q5VWK5 24-629)
# T1 sequence (looked up): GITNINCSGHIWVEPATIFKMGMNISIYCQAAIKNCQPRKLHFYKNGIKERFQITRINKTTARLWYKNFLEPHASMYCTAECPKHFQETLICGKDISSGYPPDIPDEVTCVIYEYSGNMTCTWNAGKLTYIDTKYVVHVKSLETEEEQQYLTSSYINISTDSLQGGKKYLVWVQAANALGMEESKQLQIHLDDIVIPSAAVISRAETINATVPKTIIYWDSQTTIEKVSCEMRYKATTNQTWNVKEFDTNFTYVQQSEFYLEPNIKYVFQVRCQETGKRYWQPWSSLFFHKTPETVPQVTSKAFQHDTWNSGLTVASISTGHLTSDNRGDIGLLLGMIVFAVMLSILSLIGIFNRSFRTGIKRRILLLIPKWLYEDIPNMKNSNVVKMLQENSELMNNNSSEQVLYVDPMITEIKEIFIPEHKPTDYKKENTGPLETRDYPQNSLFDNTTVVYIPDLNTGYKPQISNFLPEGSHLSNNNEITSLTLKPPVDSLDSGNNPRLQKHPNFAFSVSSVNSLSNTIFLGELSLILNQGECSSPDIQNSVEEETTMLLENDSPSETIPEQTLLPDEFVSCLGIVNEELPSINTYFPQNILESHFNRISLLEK
# T2: IL23R_huFC (human, UniProt Q5VWK5 24-353)
# T2 sequence (looked up): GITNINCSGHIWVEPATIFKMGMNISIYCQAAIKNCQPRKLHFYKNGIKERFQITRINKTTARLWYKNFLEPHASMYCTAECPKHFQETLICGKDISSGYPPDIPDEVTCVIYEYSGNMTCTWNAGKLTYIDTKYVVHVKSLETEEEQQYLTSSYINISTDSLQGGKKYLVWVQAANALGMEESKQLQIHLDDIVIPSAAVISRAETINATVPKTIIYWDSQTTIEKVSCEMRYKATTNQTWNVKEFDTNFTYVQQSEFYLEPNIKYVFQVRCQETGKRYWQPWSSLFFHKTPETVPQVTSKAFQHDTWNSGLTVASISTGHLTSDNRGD
# B1: Ac-Cyclo-[[Abu]-QTWQC]-[Phe[4-(2-aminoethoxy)]]-[2-Nal]-[4-amino-4-carboxy-piperidine]-ENN-NH2 (peptide)
# peptide: Ac-[Abu]QTWQC[AEF][2Nal][4‑amino‑4‑carboxy‑piperidine]ENN-NH2
# modifications: thioether 1-6
# B2: Ac-Cyclo-[[Abu]-QTWQC]-[Phe[4-(2-aminoethoxy)]]-[2-Nal]-[Aib]-E-[Dap(Ac)]-G-NH2 (peptide)
# peptide: Ac-[Abu]QTWQC[AEF][2Nal][Aib]E[Dap](Ac)G-NH2
# modifications: thioether 1-6
# B3: Ac-Cyclo-[[Abu]-QTWQC]-[Phe[4-(2-aminoethoxy)]]-[2-Nal]-[Acvc]-ENN-NH2 (peptide)
# peptide: Ac-[Abu]QTWQC[AEF][2Nal][Ac5c]ENN-NH2
# modifications: thioether 1-6
# B4: Ac-Cyclo-[[Abu]-QTWQC]-[Phe[4-(2-aminoethoxy)]]-W-[α-MeLys]-[Lys(Ac)]-NG-NH2 (peptide)
# peptide: Ac-[Abu]QTWQC[AEF]W[αMeK]K(Ac)NG-NH2
# modifications: thioether 1-6
# B5: Ac-Cyclo-[[Abu]-QTWQC]-[Phe[4-(2-aminoethoxy)]]-[2-Nal]-[Aib]-QN-[βAla]-NH2 (peptide)
# peptide: Ac-[Abu]QTWQC[AEF][2Nal][Aib]QN[βAla]-NH2
# modifications: thioether 1-6
# B6: Ac-Cyclo-[[Abu]-QTWQC]-[Phe[4-(2-aminoethoxy)]]-[2-Nal]-[α-MeLeu]-[Lys(Ac)]-NG-NH2 (peptide)
# peptide: Ac-[Abu]QTWQC[AEF][2Nal][αMeL]K(Ac)NG-NH2
# modifications: thioether 1-6
# B7: Ac-Cyclo-[[Abu]-QTWQC]-[Phe[4-(2-aminoethoxy)]]-[2-Nal]-[α-MeLeu]-QNG-NH2 (peptide)
# peptide: Ac-[Abu]QTWQC[AEF][2Nal][αMeL]QNG-NH2
# modifications: thioether 1-6
# B8: Ac-Cyclo-[[Abu]-QTWQC]-[Phe[4-(2-aminoethoxy)]]-[2-Nal]-[α-MeLeu]-ENG-NH2 (peptide)
# peptide: Ac-[Abu]QTWQC[AEF][2Nal][αMeL]ENG-NH2
# modifications: thioether 1-6
# B9: Ac-Cyclo-[[Abu]-QTWQC]-[Phe[4-(2-aminoethoxy)]]-[2-Nal]-[Cit]-[Dap]-NG-NH2 (peptide)
# peptide: Ac-[Abu]QTWQC[AEF][2Nal][Cit][Dap]NG-NH2
# modifications: thioether 1-6
# B10: Ac-CADWECYWHTFG-NH2 (peptide)
# peptide: Ac-CADWECYWHTFG-NH2
# modifications: disulfide 1-6 (inferred)
# B11: Ac-CKDWVCYWHTFG-OH (peptide)
# peptide: Ac-CKDWVCYWHTFG-OH
# modifications: disulfide 1-6 (inferred)
# B12: Ac-CADWKCYWHTFG-OH (peptide)
# peptide: Ac-CADWKCYWHTFG-OH
# modifications: disulfide 1-6 (inferred)
# B13: Hy-CADWVCYAHTFG-NH2 (peptide)
# peptide: H-CADWVCYAHTFG-NH2
# modifications: disulfide 1-6 (inferred)
# B14: Ac-CADWVCYWHKFG-OH (peptide)
# peptide: Ac-CADWVCYWHKFG-OH
# modifications: disulfide 1-6 (inferred)
# B15: Ac-CADWVCYWHTF-[(D)Lys]-OH (peptide)
# peptide: Ac-CADWVCYWHTF[dK]-OH
# modifications: disulfide 1-6 (inferred)
# B16: Ac-CADWVCYWKTFG-OH (peptide)
# peptide: Ac-CADWVCYWKTFG-OH
# modifications: disulfide 1-6 (inferred)
# B17: Ac-CADWVCYWHTKG-OH (peptide)
# peptide: Ac-CADWVCYWHTKG-OH
# modifications: disulfide 1-6 (inferred)
# B18: Ac-CATWVCYWHTFG-NH2 (peptide)
# peptide: Ac-CATWVCYWHTFG-NH2
# modifications: disulfide 1-6 (inferred)
# B19: Ac-CQTWQCYW-[(D)Arg]-ENG-[AEA]-[(D)-Lys]-NH2 (peptide)
# peptide: Ac-CQTWQCYW[dR]ENG[AEA][dK]-NH2
# modifications: disulfide 1-6 (inferred)
# B20: Ac-CRDWQCYW-[N-MeArg]-KFG-[AEP]-[(D)-Lys]-NH2 (peptide)
# peptide: Ac-CRDWQCYW[NMeR]KFG[PEG1][dK]-NH2
# modifications: disulfide 1-6
# SMILES: CC(=O)N[C@H]1CSSC[C@@H](C(=O)N[C@@H](Cc2ccc(O)cc2)C(=O)N[C@@H](Cc2c[nH]c3ccccc23)C(=O)N(C)[C@@H](CCCNC(=N)N)C(=O)N[C@@H](CCCCN)C(=O)N[C@@H](Cc2ccccc2)C(=O)NCC(=O)NCCOCCC(=O)N[C@H](CCCCN)C(N)=O)NC(=O)[C@H](CCC(N)=O)NC(=O)[C@H](Cc2c[nH]c3ccccc23)NC(=O)[C@H](CC(=O)O)NC(=O)[C@H](CCCNC(=N)N)NC1=O
# B21: Ac-CQTWQCYWR-[N-MeArg]-NG-[AEA]-[(D)-Lys]-NH2 (peptide)
# peptide: Ac-CQTWQCYWR[NMeR]NG[AEA][dK]-NH2
# modifications: disulfide 1-6
# SMILES: CC(=O)N[C@H]1CSSC[C@@H](C(=O)N[C@@H](Cc2ccc(O)cc2)C(=O)N[C@@H](Cc2c[nH]c3ccccc23)C(=O)N[C@@H](CCCNC(=N)N)C(=O)N(C)[C@@H](CCCNC(=N)N)C(=O)N[C@@H](CC(N)=O)C(=O)NCC(=O)NCCOCC(=O)N[C@H](CCCCN)C(N)=O)NC(=O)[C@H](CCC(N)=O)NC(=O)[C@H](Cc2c[nH]c3ccccc23)NC(=O)[C@H]([C@@H](C)O)NC(=O)[C@H](CCC(N)=O)NC1=O
# B22: Ac-CQTWQCYWR-[(D)Glu]-NG-[AEA[(D)-Lys]-NH2 (peptide)
# peptide: Ac-CQTWQCYWR[dE]NG[AEA][dK]-NH2
# modifications: disulfide 1-6
# SMILES: CC(=O)N[C@H]1CSSC[C@@H](C(=O)N[C@@H](Cc2ccc(O)cc2)C(=O)N[C@@H](Cc2c[nH]c3ccccc23)C(=O)N[C@@H](CCCNC(=N)N)C(=O)N[C@H](CCC(=O)O)C(=O)N[C@@H](CC(N)=O)C(=O)NCC(=O)NCCOCC(=O)N[C@H](CCCCN)C(N)=O)NC(=O)[C@H](CCC(N)=O)NC(=O)[C@H](Cc2c[nH]c3ccccc23)NC(=O)[C@H]([C@@H](C)O)NC(=O)[C@H](CCC(N)=O)NC1=O
# B23: Ac-CQTWQCYW-[N-MeArg]-ENG-[AEA]-[(D)-Lys]-NH2 (peptide)
# peptide: Ac-CQTWQCYW[NMeR]ENG[AEA][dK]-NH2
# modifications: disulfide 1-6 (inferred)
# B24: Ac-CRDWQCYWR-[(D)Lys]-FG-[AEP]-[(D)-Lys]-NH2 (peptide)
# peptide: Ac-CRDWQCYWR[dK]FG[PEG1][dK]-NH2
# modifications: disulfide 1-6
# SMILES: CC(=O)N[C@H]1CSSC[C@@H](C(=O)N[C@@H](Cc2ccc(O)cc2)C(=O)N[C@@H](Cc2c[nH]c3ccccc23)C(=O)N[C@@H](CCCNC(=N)N)C(=O)N[C@H](CCCCN)C(=O)N[C@@H](Cc2ccccc2)C(=O)NCC(=O)NCCOCCC(=O)N[C@H](CCCCN)C(N)=O)NC(=O)[C@H](CCC(N)=O)NC(=O)[C@H](Cc2c[nH]c3ccccc23)NC(=O)[C@H](CC(=O)O)NC(=O)[C@H](CCCNC(=N)N)NC1=O
# B25: Ac-CRDWQCYW-[(D)Arg]-KFG-[AEP]-[(D)-Lys]-NH2 (peptide)
# peptide: Ac-CRDWQCYW[dR]KFG[PEG1][dK]-NH2
# modifications: disulfide 1-6
# SMILES: CC(=O)N[C@H]1CSSC[C@@H](C(=O)N[C@@H](Cc2ccc(O)cc2)C(=O)N[C@@H](Cc2c[nH]c3ccccc23)C(=O)N[C@H](CCCNC(=N)N)C(=O)N[C@@H](CCCCN)C(=O)N[C@@H](Cc2ccccc2)C(=O)NCC(=O)NCCOCCC(=O)N[C@H](CCCCN)C(N)=O)NC(=O)[C@H](CCC(N)=O)NC(=O)[C@H](Cc2c[nH]c3ccccc23)NC(=O)[C@H](CC(=O)O)NC(=O)[C@H](CCCNC(=N)N)NC1=O
# B26: Ac-CQTWQCYW-[(D)Arg]-[(D)Glu]-NG-[AEA]-[(D)Lys]-NH2 (peptide)
# peptide: Ac-CQTWQCYW[dR][dE]NG[AEA][dK]-NH2
# modifications: disulfide 1-6 (inferred)
# B27: Ac-CQTWQCYWR-[N-MeLys]-NG-[AEA]-[(D)-Lys]-NH2 (peptide)
# peptide: Ac-CQTWQCYWR[NMeK]NG[AEA][dK]-NH2
# modifications: disulfide 1-6
# SMILES: CC(=O)N[C@H]1CSSC[C@@H](C(=O)N[C@@H](Cc2ccc(O)cc2)C(=O)N[C@@H](Cc2c[nH]c3ccccc23)C(=O)N[C@@H](CCCNC(=N)N)C(=O)N(C)[C@@H](CCCCN)C(=O)N[C@@H](CC(N)=O)C(=O)NCC(=O)NCCOCC(=O)N[C@H](CCCCN)C(N)=O)NC(=O)[C@H](CCC(N)=O)NC(=O)[C@H](Cc2c[nH]c3ccccc23)NC(=O)[C@H]([C@@H](C)O)NC(=O)[C@H](CCC(N)=O)NC1=O
# B28: Ac-CQTWQCYW-[N-MeArg]-ENG-[AEA]-[(D)-Lys]-NH2 (peptide)
# peptide: Ac-CQTWQCYW[NMeR]ENG[AEA][dK]-NH2
# modifications: disulfide 1-6 (inferred)
# B29: Ac-CRDWQCYW-[(D)Arg]-[(D)Lys]-FG-[AEP]-[(D)-Lys]-NH2 (peptide)
# peptide: Ac-CRDWQCYW[dR][dK]FG[PEG1][dK]-NH2
# modifications: disulfide 1-6
# SMILES: CC(=O)N[C@H]1CSSC[C@@H](C(=O)N[C@@H](Cc2ccc(O)cc2)C(=O)N[C@@H](Cc2c[nH]c3ccccc23)C(=O)N[C@H](CCCNC(=N)N)C(=O)N[C@H](CCCCN)C(=O)N[C@@H](Cc2ccccc2)C(=O)NCC(=O)NCCOCCC(=O)N[C@H](CCCCN)C(N)=O)NC(=O)[C@H](CCC(N)=O)NC(=O)[C@H](Cc2c[nH]c3ccccc23)NC(=O)[C@H](CC(=O)O)NC(=O)[C@H](CCCNC(=N)N)NC1=O
# Molecular target: T1, IL-23R on human cells …
# Test: cell-based or functional assay
row,pStat3 HTRF IC50 [nM],Binder
1,< 10,B1
2,< 10,B2
3,< 10,B3
4,< 10,B4
5,< 10,B5
6,< 10,B6
7,< 10,B7
8,< 10,B8
9,< 10,B9

# Molecular target: T2, IL23R_huFC
# Test: IL23-IL23R competitive ELISA
row,IC50 [nM],Binder
1,> 1000,B10
2,> 1000,B11
3,> 1000,B12
4,> 1000,B13
5,> 1000,B14
6,> 1000,B15
7,> 1000,B16
8,> 1000,B17
9,> 1000,B18
10,> 1000,B19
11,> 1000,B20
12,> 1000,B21
13,> 1000,B22
14,> 1000,B23
15,> 1000,B24
16,> 1000,B25
17,> 1000,B26
18,> 1000,B27
19,> 1000,B28
20,> 1000,B29
